Reference: PMC5518672 (Nature structural & molecular biology, 2013)

Columns and labels:
[1] = molecular target: the molecule itself; test: SEC
[2] = molecular target: the molecule itself; test: SEC; remark: listed apart in the source
[3] = molecular target: the molecule itself; test: SEC-MALS

B1: recombinant full-length Aplysia CPEB (His6-CPEB fusion protein) (natural protein)
chain: not shown
- stoichiometry N [1]: > 10
- stoichiometry N [2]: ≥ 10
- stoichiometry N [3]: 3
